According to IntAct's records for PubMed 14978263:

Target: csk21_arath CKA1 (UniProt Q08467)
Sequence (Q08467 whole entry): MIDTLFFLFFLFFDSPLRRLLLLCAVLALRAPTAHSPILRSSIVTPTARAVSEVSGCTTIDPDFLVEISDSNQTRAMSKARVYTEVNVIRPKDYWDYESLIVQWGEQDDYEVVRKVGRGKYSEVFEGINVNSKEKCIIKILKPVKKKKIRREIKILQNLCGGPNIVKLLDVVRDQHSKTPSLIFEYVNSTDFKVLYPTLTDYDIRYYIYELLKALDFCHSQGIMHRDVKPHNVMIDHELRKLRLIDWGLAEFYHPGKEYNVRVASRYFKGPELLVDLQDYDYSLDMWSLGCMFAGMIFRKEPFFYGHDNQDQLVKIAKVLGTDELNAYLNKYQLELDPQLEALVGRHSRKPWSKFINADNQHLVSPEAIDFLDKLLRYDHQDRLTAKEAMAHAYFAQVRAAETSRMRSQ

Protein CCA1 (Arabidopsis thaliana (Mouse-ear cress)), P92973 S6A, sequence (P92973 whole entry S6A): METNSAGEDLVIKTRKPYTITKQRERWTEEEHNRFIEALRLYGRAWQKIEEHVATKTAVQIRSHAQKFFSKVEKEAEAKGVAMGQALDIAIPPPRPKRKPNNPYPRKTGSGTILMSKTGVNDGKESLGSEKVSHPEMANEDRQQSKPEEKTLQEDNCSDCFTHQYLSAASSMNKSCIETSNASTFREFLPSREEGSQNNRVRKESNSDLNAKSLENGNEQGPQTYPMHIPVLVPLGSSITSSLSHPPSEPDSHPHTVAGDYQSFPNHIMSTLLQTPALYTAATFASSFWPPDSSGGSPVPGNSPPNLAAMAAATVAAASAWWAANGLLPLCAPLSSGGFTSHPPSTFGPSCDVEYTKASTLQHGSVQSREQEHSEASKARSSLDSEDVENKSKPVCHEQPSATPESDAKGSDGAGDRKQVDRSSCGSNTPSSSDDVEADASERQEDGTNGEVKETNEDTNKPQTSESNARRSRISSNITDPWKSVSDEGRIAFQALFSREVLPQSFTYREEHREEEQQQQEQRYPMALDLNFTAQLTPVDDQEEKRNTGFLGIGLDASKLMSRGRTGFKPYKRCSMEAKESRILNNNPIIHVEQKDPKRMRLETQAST
Protein CCA1 (Arabidopsis thaliana (Mouse-ear cress)), P92973 S5A, sequence (P92973 whole entry S5A): as the sequence (P92973 whole entry S6A) above, with S5A, A6S counted along it

| effect of a mutation on the interaction | Substance |
| --- | --- |
| decreasing interaction | Protein CCA1 (Arabidopsis thaliana (Mouse-ear cress)), P92973 S6A |
| decreasing interaction | Protein CCA1 (Arabidopsis thaliana (Mouse-ear cress)), P92973 S433A |
| decreasing interaction | Protein CCA1 (Arabidopsis thaliana (Mouse-ear cress)), P92973 S432A |
| decreasing interaction | Protein CCA1 (Arabidopsis thaliana (Mouse-ear cress)), P92973 S484A |
| decreasing interaction | Protein CCA1 (Arabidopsis thaliana (Mouse-ear cress)), P92973 S5A |
| decreasing interaction | Protein CCA1 (Arabidopsis thaliana (Mouse-ear cress)), P92973 S431A |
